According to patent publication US20220313780A1, “METHODS AND COMPOSITIONS FOR TREATING INFLAMMATORY CONDITIONS” (THE SCRIPPS RESEARCH INSTITUTE, priority 2019, published 2022):

Biological target: T1, PAR3 (Homo sapiens, UniProt O00254)
T1 construct: mouse monoclonal antibody to PAR3, clone 19b (clonel9b; 25 μg/mL) for 30 minutes; endogenous in cells; host or cells: THP1-null (wildtype) cells, PMA-differentiated
T1 sequence (O00254 22-374): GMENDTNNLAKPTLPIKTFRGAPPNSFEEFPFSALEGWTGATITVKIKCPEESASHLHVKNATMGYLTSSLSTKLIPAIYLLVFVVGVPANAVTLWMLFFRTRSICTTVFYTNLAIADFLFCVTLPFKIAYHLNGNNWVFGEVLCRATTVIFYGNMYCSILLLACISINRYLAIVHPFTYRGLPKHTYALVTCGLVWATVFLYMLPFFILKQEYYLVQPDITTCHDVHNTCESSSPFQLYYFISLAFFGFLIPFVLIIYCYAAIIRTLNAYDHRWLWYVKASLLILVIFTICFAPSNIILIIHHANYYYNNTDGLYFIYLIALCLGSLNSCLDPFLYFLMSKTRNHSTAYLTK
Assay: Caspase 1 activity assay in THP1 cells after blocking PAR3 with monoclonal antibody clone 19b
Assay type: cell-based
Details: clone 19b 25 μg/mL for 30 minutes before APC 4 μg/mL, TR47 50 μM or P3R 50 μM
Protocol: THP1 or (A) NLRP3 deficient cells (THP1-defNLRP3) cells were plated at a final concentration of 1×10^6/mL in 96 well plates and incubated with PMA (0.5 μM) for 3 hours 37° C. in supplemented RPMI. Media was subsequently changed every 24 hours for 3 days. In brief, selected wells were treated with APC (4 μg/mL), TR47 (50 μM) or P3R (50 μM) for 1 hour, washed with DPBS, and incubated with LPS (1 μg/mL) for 3 hours at 37° C. in serum-free RPMI. After a DPBS wash, cells were incubated with ATP (5 mM) in the presence or absence of 10 μM YVAD (caspase 1 inhibitor) or 2.5 μM ZVAD (pan-caspase inhibitor) for 45 minutes at 37° C. […] Again, cells were washed with DPBS and incubated with ATP (5 mM) in the presence or absence of 10 μM YVAD (caspase 1 inhibitor) or 2.5 μM ZVAD (pan-caspase inhibitor) for 45 minutes prior to performing the caspase 1 activity following manufacturer's directions measuring luminescence. […] After a DPBS wash, cells were incubated with ATP (5 mM) in the presence or absence of 10 μM YVAD (caspase 1 inhibitor) or 2.5 μM ZVAD (pan-caspase inhibitor) for 45 minutes at 37° C., prior to performing the caspase 1 activity assay following manufacturer's directions measuring luminescence (relative luminescent units, RLU). […]

| Sequence | effect of blocking PAR3 on anti-inflammatory activity (caspase 1) |
| --- | --- |
| GAPPNSFEEFPFSALEGWTGATIT [P3R, PAR3-derived 24-mer peptide] | very significantly reduced the anti-inflammatory activity |
| NPNDKYEPFWEDEEKNESGL [TR47, PAR1-derived 20 amino acid peptide] | less significantly reduced the activity |
